What all share (type): biochemical
The subject of assay [1] is acid-pretreated corn stover. The assay can be described thus: Shake flask saccharification with CF-416 whole broth enzymes with 0 or 50 μM CuSO4 at pH 5.0 or pH 6.0 (FIG. 4). The note with it: 50 μM vs 0 CuSO4; for increase in glucose yields: CF-416 whole broth enzymes 0.81%, 72 hours, 55° C. As to the method: This Example describes experiments designed to determine the effects of added copper in saccharification reactions. The saccharification reactions were run in 30g shake flasks (250 mL flasks) using 82g/kg glucan of acid-pretreated corn stover and whole broth enzymes produced by M. thermophila strain CF-416 (produced using standard methods known in the art) at a 0.81% total enzyme load with respect to glucan. […] A pH trim was also performed using 2M NaOH at time intervals of 1, 4, 7, 22, 24 29, 46, 52, 70, 75 and 96 hrs, to maintain the pH at the desired value of pH 5.0 or pH 6.0. Samples were removed at 72 hours and the total amount of glucose in the reaction mixture was determined using standard HPLC methods and equipment as known in the art.

Assay [2] deals with pretreated corn stover (PCS). The assay is described as follows: Supplementation of CF-416 whole cellulase broth with single purified enzymes, saccharification of pretreated corn stover. To be noted: 0.4% single enzyme added to 0.5% CF-416 whole cellulase broth base; 74 g/L glucan, pH 5.0, 55° C., 50 μM copper. As to the method:
(§1) In this Example, M. thermophila-produced and purified GH61a, GH61p, GH61f, GH61n, CBH1a, CBH2b, AXE3, FAE, and Xyl3, were used to supplement the activity present in culture broths (i.e., “whole broth cellulase base”) of the M. thermophila strain CF-416 prepared using standard methods known in the art. The broth cellulase base was fixed to 0.5% protein and the single purified enzyme was added at 0.4% (wt added protein/wt glucan) to the saccharification reactions. The whole cellulase broth base and individual enzymes were characterized by standard BCA assays for total protein quantification.
(§2) The saccharification reactions were carried out at 74 g/L glucan load of pretreated wheat straw (PWS) or pretreated corn stover (PCS) at pH 5.0, 55° C. at 950 rpm in the presence of 50 μM copper in high throughput (HTP) 96 deep well plates. Glucose analysis was carried out by the glucose oxidase assay as described above. In each case, the fold improvement was calculated using the formula Fold Improvement=[Total Glucose Production with addition of 0.4% single enzyme to the whole cellulase broth base]/[glucose production from the 0.5% whole cellulase broth base]. In this Table, the fold improvements were ranked from 0 to 3; fold improvements less than 1.2× are indicated by “0,” fold improvements of >1.2 to <1.5 are indicated by “1,” fold improvements of ≧1.5× to <1.7× improvements are indicated by “2,” and fold improvements ≧1.7 are indicated by “3.”

The next assay concerns crystalline cellulose. The assay can be described thus: Saccharification of crystalline cellulose by cellulase enzymes in culture broth from M. thermophila cells with GH61a added (FIG. 1). To be noted: GH61a added to cellulases of M. thermophila culture broth. As for the experimental part: FIG. 1 provides results of an experiment using recombinantly produced GH61a protein having the sequence shown in SEQ ID NO:2. The protein was tested for its ability to promote the activity of cellulases present in culture broth of M. thermophila.
A protein from a strain of M. thermophila having the amino acid sequence provided in SEQ ID NO:2 was previously identified as having GH61 activity. It was designated “GH61a”.

Another assay concerns pre-treated wheat straw. The assay is described as follows: Biomass assay of GH61a pre-incubated with or supplemented by copper(II) (FIG. 3). To be noted: pre-incubated with copper(II) (CuSO4) 0 to 100 μM, 72 h, pH 5, 55° C. As for the experimental part:
Purified M. thermophila-produced GH61a or S. cerevisiae supernatant containing M. thermophila-GH61a was pre-incubated with different amounts of copper(II) (CuSO4) at concentrations of 0 to 100 μM at ambient temperature for 30 min. The biomass assay was then performed in a total volume of 300 μL, in the presence of 10 mg of pre-treated wheat straw, using 261 μL of copper-treated GH61 samples, 39 μL of sodium acetate buffer (pH 5), M. thermophila-produced CBH1a, CBH2b and β-glucosidase. The final concentration of sodium acetate was 120 mM and the enzyme loads of CBHs and β-glucosidase (CBH1a and CBH2b in 1:1 ratio) were 0.01% and 0.02% with respect to substrate glucan mass in the biomass substrate, respectively. Background (negative) controls were obtained by using either water or media supernatant from cultures of S. cerevisiae cells without the GH61a gene in the plasmid. Thus, the negative controls represent activities of CBH1a, CBH2b and beta-glucosidase in the absence of GH61a. The reaction was incubated at 55° C. for 72 hours with shaking.
Some experiments were also performed without pre-incubating GH61 with copper(II), but instead, by directly adding different amounts of copper(II) (CuSO4) to the biomass assay reactions as described herein.
Biomass assays were performed with (A) S. cerevisiae-produced M. thermophila GH61a Variant 5, and (B) M. thermophila-produced wild-type GH61a. Glucose production after 72 h incubation at pH 5, 55° C. was determined by the glucose assay. The data in this Figure indicate GH61a-only activity, in which the amount of glucose produced in control reaction containing CBH and β-glucosidase was subtracted from the total amount of glucose produced in the reactions with GH61a. In this Figure, N=4; and the error bars represent ±1 standard deviation. Copper concentrations shown are with respect to the total reaction volume.

The test system of assay [3] is pretreated wheat straw (PWS). The assay can be described thus: Supplementation of CF-416 whole cellulase broth with single purified enzymes, saccharification of pretreated wheat straw. The note with it: 0.4% single enzyme added to 0.5% CF-416 whole cellulase broth base; for Fold Improvement Over Whole Cellulase Broth Tested on PWS: 74 g/L glucan, pH 5.0, 55° C., 50 μM copper. As for the experimental part:
as §1, §2

Numbering of substitutions follows the chain as printed. In names and notes the source's numbering stands.

Consider `O=S(=O)([O-])[O-].[Cu+2]` [copper(II), CuSO4], for which the “total amounts of C5 sugars produced” value in assay [1] (FIG. 4, Panel B) was “may cause a decrease”. For the same molecule, the “increase in glucose yields” value in assay [1] (saccharification pH 5.0) is around 3.5%; in assay [1] (saccharification pH 6.0), “not observed”.

B1: GH61a: Wild-type M. thermophila C1 GH61a polypeptide (SEQ ID NO:2) (protein, listed as Myceliophthora thermophila)
chain: MSKASALLAGLTGAALVAAHGHVSHIVVNGVYYRNYDPTTDWYQPNPPTVIGWTAADQDNGFVEPNSFGTPDIICHKSATPGGGHATVAAGDKINIVWTPEWPESHIGPVIDYLAACNGDCETVDKSSLRWFKIDGAGYDKAAGRWAADALRANGNSWLVQIPSDLKAGNYVLRHEIIALHGAQSPNGAQAYPQCINLRVTGGGSNLPSGVAGTSLYKATDPGILFNPYVSSPDYTVPGPALIAGAASSIAQSTSVATATGTATVPGGGGANPTATTTAATSAAPSTTLRTTTTSAAQTTAPPSGDVQTKYGQCGGNGWTGPTVCAPGSSCSVLNEWYSQCL
Turning to B1, the “Fold Improvement Over Whole Cellulase Broth Tested on PCS” value in assay [2] is 2 (fold improvements of ≧1.5× to <1.7×). In the assay on crystalline cellulose, the glucose yield result is listed as “improvement in glucose yield”. Moreover, the “GH61a-only activity (glucose production) when Cu^++ is included in the reaction” value (“GH61a-only activity (glucose production)” for short) in the assay on pre-treated wheat straw (listed as M. thermophila-produced GH61a) is given as “improved”. Moreover, in the assay with pre-treated wheat straw (listed as wild-type GH61a), the “GH61a-only activity (glucose production)” value is reported as “increase”. Further, in assay [3], the “improvement over whole cellulase broth on PWS, in words” value is reported as “greatest benefit” and the “Fold Improvement Over Whole Cellulase Broth Tested on PWS” value was 3 (fold improvements ≧1.7).

B2: E104H/K167A (protein)
chain: B1 chain with E104H, K167A
As for B2, the figures for the “GH61a-only activity (glucose production)” value in the assay on pre-treated wheat straw and with pre-treated wheat straw (listed as S. cerevisiae supernatant containing M. thermophila-GH61a) were “increase” and “improved”, respectively.

B3: FAE: wild-type M. thermophila ferulic acid esterase (SEQ ID NO:170) (protein, listed as Myceliophthora thermophila)
chain: MISVPALALALLAAVQVVESASAGCGKAPPSSGTKSMTVNGKQRQYILQLPNNYDANKAHRVVIGYHWRDGSMNDVANGGFYDLRSRAGDSTIFVAPNGLNAGWANVGGEDITFTDQIVDMLKNDLCVDETQFFATGWSYGGAMSHSVACSRPDVFKAVAVIAGAQLSGCAGGTTPVAYLGIHGAADNVLPIDLGRQLRDKWLQTNGCNYQGAQDPAPGQQAHIKTTYSCSRAPVTWIGHGGGHVPDPTGNNGVKFAPQETWDFFDAAVGAAGAQSPMT
In the case of B3, in assay [2], the “Fold Improvement Over Whole Cellulase Broth Tested on PCS” value is on record as 1 (fold improvements of >1.2 to <1.5). For the same molecule, the “Fold Improvement Over Whole Cellulase Broth Tested on PWS” value in assay [3] was 1 (fold improvements of >1.2 to <1.5).

B4: Xyl3: wild-type M. thermophila xylanase (SEQ ID NO:149) (protein, listed as Myceliophthora thermophila)
chain: MHSKAFLAALLAPAVSGQLNDLAVRAGLKYFGTALSESVINSDTRYAAILSDKSMFGQLVPENGMKWDATEPSRGQFNYASGDITANTAKKNGQGMRCHTMVWYSQLPSWVSSGSWTRDSLTSVIETHMNNVMGHYKGQCYAWDVINEAINDDGNSWRDNVFLRTFGTDYFALSFNLAKKADPDTKLYYNDYNLEYNQAKTDRAVELVKMVQAAGAPIDGVGFQGHLIVGSTPTRSQLATALQRFTALGLEVAYTELDIRHSSLPASSSALATQGNDFANVVGSCLDTAGCVGVTVWGFTDAHSWIPNTFPGQGDALIYDSNYNKKPAWTSISSVLAAKATGAPPASSSTTLVTITTPPPASTTASSSSSATPTSVPTQTRWGQCGGIGWTGPTQCESPWTCQKLNDWYWQCL
As to B4, the “Fold Improvement Over Whole Cellulase Broth Tested on PCS” value in assay [2] is 0 (fold improvements less than 1.2×). Further, the “Fold Improvement Over Whole Cellulase Broth Tested on PWS” value in assay [3] is on record as 1 (fold improvements of >1.2 to <1.5).

B5: CBH1a: wild-type M. thermophila CBH1a (SEQ ID NO:128) (protein, listed as Myceliophthora thermophila)
chain: MYAKFATLAALVAGAAAQNACTLTAENHPSLTYSKCTSGGSCTSVQGSITIDANWRWTHRTDSATNCYEGNKWDTSWCSDGPSCASKCCIDGADYSSTYGITTSGNSLNLKFVTKGQYSTNIGSRTYLMESDTKYQMFQLLGNEFTFDVDVSNLGCGLNGALYFVSMDADGGMSKYSGNKAGAKYGTGYCDSQCPRDLKFINGEANVENWQSSTNDANAGTGKYGSCCSEMDVWEANNMAAAFTPHPCTVIGQSRCEGDSCGGTYSTDRYAGICDPDGCDFNSYRQGNKTFYGKGMTVDTTKKITVVTQFLKNSAGELSEIKRFYVQNGKVIPNSESTIPGVEGNSITQDWCDRQKAAFGDVTDFQDKGGMVQMGKALAGPMVLVMSIWDDHAVNMLWLDSTWPIDGAGKPGAERGACPTTSGVPAEVEAEAPNSNVIFSNIRFGPIGSTVSGLPDGGSGNPNPPVSSSTPVPSSSTTSSGSSGPTGGTGVAKHYEQCGGIGFTGPTQCESPYTCTKLNDWYSQCL
Regarding B5, the “Fold Improvement Over Whole Cellulase Broth Tested on PCS” value in assay [2] was 1 (fold improvements of >1.2 to <1.5). In assay [3], the “Fold Improvement Over Whole Cellulase Broth Tested on PWS” value is given as 3 (fold improvements ≧1.7).

Source of the values: patent US8951758B2, “GH61 glycoside hydrolase protein variants and cofactors that enhance GH61 activity” (Codexis, Inc., priority 2011, dated 2015).
